The nature of series [1]: Fluorescence polarization (FP) binding to fluorescein labeled STX. To be noted: T = 298K; for […]G (kcal mol^−1) relative to wild-type RcSxph: […]G = RT ln (KdSxph mutant/KdSxph). On the technique in general: Polarisation of emitted light reports the rotation of a fluorescent probe.
The nature of series [2]: Isothermal titration calorimetry (ITC) of STX into Sxph. The class given is binding. To be noted: 25° C. The protocol:
ITC measurements were performed at 25° C. using a MicroCal PEAQ-ITC calorimeter (Malvern Panalytical). […]. This STX stock was diluted with the SEC buffer to prepare 100 μM or 300 μM STX solutions having a final buffer composition of 135 mM NaCl, 9 mM HEPES, pH 7.4. […]. The calorimetric experiment settings were: reference power, 5 μcal/s; spacing between injections, 150 s; stir speed 750 rpm; and feedback mode, high. Data were analyzed using MicroCal PEAQ-ITC Analysis Software (Malvern Panalytical) using a single binding site model. The heat of dilution from titrations of 100 μM STX in 135 mM NaCl, 9 mM HEPES, pH 7.4 into 135 mM NaCl, 9 mM HEPES, pH 7.4 was subtracted from each experiment to correct the baseline.
Background: In ITC the heat of successive injections is recorded.

The subject of the next series is PtNaV1.4. The series is described as follows: Two-electrode voltage clamp: Sxph rescue of PtNaV1.4 from STX block in Xenopus oocytes. The class given is cell-based, Phyllobates terribilis. The conditions noted are these: [Sxph]:[STX] ratio, 100 nM STX.
The format of series [3] is binding. The conditions noted are these: 1.1 μM Sxph, 0-20 μM STX.

Changes are numbered by the printed parent chain. In names and notes the source's numbering stands.

B1: RcSxph: Saxiphilin of Rana (Lithobates) catesbeianus, American bullfrog, SEQ ID NO:1 (protein)
chain: MAPTFQTALFFTIISLSFAAPNAKQVRWCAISDLEQKKCNDLVGSCNVPDITLVCVLRSSTEDCMTAIKDGQADAMFLDSGEVYEASKDPYNLKPIIAEPYSSNRDLQKCLKERQQALAKKMIGHYIPQCDEKGNYQPQQCHGSTGHCWCVNAMGEKISGTNTPPGQTRATCERHELPKCLKERQVALGGDEKVLGRFVPQCDEKGNYEPQQFHGSTGYSWCVNAIGEEIAGTKTPPGKIPATCQKHDLVTTCHYAVAMVKKSSAFQFNQLKGKRSCHSGVSKTDGWKALVTVLVEKKLLSWDGPAKESIQRAMSKFFSVSCIPGATQTNLCKQCKGEEGKNCKNSHDEPYYGNYGAFRCLKEDMGDVAFLRSTALSDEHSEVYELLCPDNTRKPLNKYKECNLGTVPAGTVVTRKISDKTEDINNFLMEAQKRQCKLFSSAHGKDLMFDDSTLQLALLSSEVDAFLYLGVKLFHAMKALTGDAHLPSKNKVRWCTINKLEKMKCDDWSAVSGGAIACTEASCPKGCVKQILKGEADAVKLEVQYMYEALMCGLLPAVEEYHNKDDFGPCKTPGSPYTDFGTLRAVALVKKSNKDINWNNIKGKKSCHTGVGDIAGWVIPVSLIRRQNDNSDIDSFFGESCAPGSDTKSNLCKLCIGDPKNSAANTKCSLSDKEAYYGNQGAFRCLVEKGDVAFVPHTVVFENTDGKNPAVWAKNLKSEDFELLCLDGSRAPVSNYKSCKLSGIPPPAIVTREESISDVVRIVANQQSLYGRKGFEKDMFQLFSSNKGNNLLFNDNTQCLITFDRQPKDIMEDYFGKPYYTTVYGASRSAMSSELISACTIKHC
In the case of B1, in series [1] ([…]G = RT ln (Kd(XSxph)/Kd(RcSxph))), the “[…]G (kcal mol^−1) relative to RcSxph” value came out at 0 kcal/mol. In addition, the “[…]G (kcal mol^−1) relative to wild-type RcSxph” value in series [1] came to 0 kcal/mol. For the same molecule, in series [2], the “[…]G” value is -12.3 ± 0.5 kcal/mol; the “[…]H (kcal mol^−1), binding enthalpy” value is -16.1 ± 0.2 kcal/mol; the “[…]S (cal mol^−1 K^−1)” value is −12.7 ± 0.9 cal mol^−1 K^−1. Besides, the “[…]H (kcal mol^−1), binding enthalpy” value in series [2] (listed as RcSxph WT) was -16.1 ± 0.2 kcal/mol. The “Effective Rescue Ratio50 (ERR50)” value in the series on PtNaV1.4 was 1.07±0.02. Moreover, in series [3], the “DTm ([…]Tm=TmSxph+20 μM toxin−TmSxph), STX” value worked out at 3.6 °C.

B2: I782A: RcSxph mutant, alanine for isoleucine at position 782 (protein)
chain: B1 chain with I801A
With B2, the “[…]G (kcal mol^−1) relative to wild-type RcSxph” value in series [1] was -0.53 kcal/mol. The “Effective Rescue Ratio50 (ERR50)” value with PtNaV1.4 is given as 0.87±0.02. In addition, in series [3], the “DTm ([…]Tm=TmSxph+20 μM toxin−TmSxph), STX” value was “DTm increases relative to wild-type”.

B3: P727A: RcSxph mutant P727A (protein)
chain: B1 chain with P746A
With B3, the “[…]G (kcal mol^−1) relative to wild-type RcSxph” value in series [1] stood at 1.21 kcal/mol. In series [2], the “[…]G” value was -10.3 ± 0.2 kcal/mol; the “[…]H (kcal mol^−1), binding enthalpy” value is -11.5 ± 0.0 kcal/mol; the “[…]S (cal mol^−1 K^−1)” value is recorded as −4.2 ± 0.9 cal mol^−1 K^−1. Further, in the series on PtNaV1.4, the “Effective Rescue Ratio50 (ERR50)” value is more than 4.

B4: E540A: RcSxph mutant E540A (protein)
chain: B1 chain with E559A
For the molecule B4, the “[…]G (kcal mol^−1) relative to wild-type RcSxph” value in series [1] was 4.52 kcal/mol. In addition, the “Effective Rescue Ratio50 (ERR50)” value in the series on PtNaV1.4 was “eliminated”. In addition, in series [3], the “DTm ([…]Tm=TmSxph+20 μM toxin−TmSxph), STX” value is listed as “complete loss of the thermal shift”.

Source of the values: patent publication US20260063625A1, “COMPOSITIONS FOR AND METHODS OF DETECTING FOOD TOXINS” (priority 2022, published 2026).
